According to IntAct's records for PubMed 15047801:

B1: Zinc finger CCCH domain-containing protein 7B (Homo sapiens), Q9UGR2 (parent)
chain: MERQKRKADIEKGLQFIQSTLPLKQEEYEAFLLKLVQNLFAEGNDLFREKDYKQALVQYMEGLNVADYAASDQVALPRELLCKLHVNRAACYFTMGLYEKALEDSEKALGLDSESIRALFRKARALNELGRHKEAYECSSRCSLALPHDESVTQLGQELAQKLGLRVRKAYKRPQELETFSLLSNGTAAGVADQGTSNGLGSIDDIETDCYVDPRGSPALLPSTPTMPLFPHVLDLLAPLDSSRTLPSTDSLDDFSDGDVFGPELDTLLDSLSLVQGGLSGSGVPSELPQLIPVFPGGTPLLPPVVGGSIPVSSPLPPASFGLVMDPSKKLAASVLDALDPPGPTLDPLDLLPYSETRLDALDSFGSTRGSLDKPDSFMEETNSQDHRPPSGAQKPAPSPEPCMPNTALLIKNPLAATHEFKQACQLCYPKTGPRAGDYTYREGLEHKCKRDILLGRLRSSEDQTWKRIRPRPTKTSFVGSYYLCKDMINKQDCKYGDNCTFAYHQEEIDVWTEERKGTLNRDLLFDPLGGVKRGSLTIAKLLKEHQGIFTFLCEICFDSKPRIISKGTKDSPSVCSNLAAKHSFYNNKCLVHIVRSTSLKYSKIRQFQEHFQFDVCRHEVRYGCLREDSCHFAHSFIELKVWLLQQYSGMTHEDIVQESKKYWQQMEAHAGKASSSMGAPRTHGPSTFDLQMKFVCGQCWRNGQVVEPDKDLKYCSAKARHCWTKERRVLLVMSKAKRKWVSVRPLPSIRNFPQQYDLCIHAQNGRKCQYVGNCSFAHSPEERDMWTFMKENKILDMQQTYDMWLKKHNPGKPGEGTPISSREGEKQIQMPTDYADIMMGYHCWLCGKNSNSKKQWQQHIQSEKHKEKVFTSDSDASGWAFRFPMGEFRLCDRLQKGKACPDGDKCRCAHGQEELNEWLDRREVLKQKLAKARKDMLLCPRDDDFGKYNFLLQEDGDLAGATPEAPAAAATATTGE

Variants of: B1
Conditions: with nsp3_rots4 nsp3, Q00721
Sequence of nsp3_rots4 nsp3, Q00721 (Q00721 whole entry): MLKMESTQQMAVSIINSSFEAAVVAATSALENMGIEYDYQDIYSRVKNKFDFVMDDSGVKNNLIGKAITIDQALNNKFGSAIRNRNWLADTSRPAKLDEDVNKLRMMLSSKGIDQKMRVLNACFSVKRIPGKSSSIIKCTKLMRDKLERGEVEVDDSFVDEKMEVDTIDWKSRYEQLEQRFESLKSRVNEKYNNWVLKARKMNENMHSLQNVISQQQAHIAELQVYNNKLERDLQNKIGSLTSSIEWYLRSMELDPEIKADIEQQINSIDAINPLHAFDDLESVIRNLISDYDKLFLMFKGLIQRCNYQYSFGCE

Row | Variant | effect of a mutation on the interaction
1 | L252A;D253A;D254A | decreasing interaction
